# Measured values published in patent US20250332299A1, “COMPOUND TARGETING SSTR2, PREPARATION METHOD THEREFOR AND USE THEREOF” (YANTAI LANNACHENG BIOTECHNOLOGY CO., LTD., priority 2022, published 2025).
# What was measured:
# AR42J tumor = experiment: MicroPET imaging in AR42J tumor-bearing mice; format: in vivo; settings: unlabeled compound injected simultaneously with ^68Ga-DOTA-TATE, PET
# Protocol: ^68Ga-TATE-EB-01 was prepared according to the method in Example 2. […] Results are shown in FIG. 4, FIG. 5, FIG. 6 and FIG. 7.
# [1] = in vivo; cited from earlier work
# in vivo = experiment: in vivo; set-up: species or system mice; settings: mouse, iv, 1.48 Mbq, total radioactivity
# Protocol: Organs and tumor tissues of interest were collected and weighed. The radioactivity was detected by a γ counter, and biological distribution results were calculated as a percent of an injection dose per gram of tissue (% ID/g).
smiles,measurement,setting,value
"Cc1cc(-c2ccc(NC(=O)[C@H](CCCCNC(=O)CCOCCOCCC(=O)N[C@H](Cc3ccccc3)C(=O)N[C@H]3CSSC[C@@H](C(=O)N[C@H](C(=O)O)[C@@H](C)O)NC(=O)[C@H]([C@@H](C)O)NC(=O)[C@H](CCCCN)NC(=O)[C@@H](Cc4c[nH]c5ccccc45)NC(=O)[C@H](Cc4ccc(O)cc4)NC3=O)NC(=O)CN3CCN(CC(=O)O)CCN(CC(=O)O)CCN(CC(=O)O)CC3)c(C)c2)ccc1N=Nc1ccc2c(S(=O)(=O)O)cc(S(=O)(=O)O)c(N)c2c1O (single isomer, unassigned) [TATE-EB-01]",inhibition of tumor uptake of ^68Ga-DOTA-TATE,AR42J tumor,significantly inhibit tumor uptake
"Cc1cc(-c2ccc(NC(=O)[C@H](CCCCNC(=O)CCN3C(=O)CC(SCCC(=O)N[C@H](Cc4ccccc4)C(=O)N[C@H]4CSSC[C@@H](C(=O)N[C@H](C(=O)O)[C@@H](C)O)NC(=O)[C@H]([C@@H](C)O)NC(=O)[C@H](CCCCN)NC(=O)[C@@H](Cc5c[nH]c6ccccc56)NC(=O)[C@H](Cc5ccc(O)cc5)NC4=O)C3=O)NC(=O)CN3CCN(CC(=O)O)CCN(CC(=O)O)CCN(CC(=O)O)CC3)c(C)c2)ccc1N=Nc1ccc2c(S(=O)(=O)O)cc(S(=O)(=O)O)c(N)c2c1O (single isomer, unassigned) [^177Lu-EB-TATE, metal not drawn]",half-life in the blood,[1],9.47 h
same,half-life in the blood relative to Lutathera,[1],about 4 times
"Cc1cc(-c2ccc(NC(=O)[C@H](CCCCNC(=O)CCOCCOCCC(=O)N[C@H](Cc3ccccc3)C(=O)N[C@H]3CSSC[C@@H](C(=O)N[C@H](C(=O)O)[C@@H](C)O)NC(=O)[C@H]([C@@H](C)O)NC(=O)[C@H](CCCCN)NC(=O)[C@@H](Cc4c[nH]c5ccccc45)NC(=O)[C@H](Cc4ccc(O)cc4)NC3=O)NC(=O)CN3CCN(CC(=O)O)CCN(CC(=O)O)CCN(CC(=O)O)CC3)c(C)c2)ccc1N=Nc1ccc2c(S(=O)(=O)O)cc(S(=O)(=O)O)c(N)c2c1O [^177Lu-TATE-EB-01, metal not drawn]",tissue uptake at 72 h,in vivo,158 ± 20 %ID/g
same,tissue uptake at 96 h,in vivo,112 ± 20.6 %ID/g
